Values belong to the binder of their own block, whether it stands above or below them.
Key:
[1] = molecular target: T1, recombinant soluble PSMA (rsPSMA) (human, UniProt Q04609 44-750); test: Biacore, purified mAb captured, rsPSMA in flow
T1 construct: Oligomeric state of the preparation not specified in the assay concerned; also called secreted rsPSMA; PSMAECTO
Procedure: (§1) To determine the kinetics and affinity of the antibodies, the antibodies in crude supernatants, in purified form and in bifunctional chelate modified forms were analyzed using a Biacore 3000 instrument (Biacore Inc., Piscataway, N.J.). Biacore 3000 is a fully automated surface plasmon resonance (SPR)-based biosensor system that is designed to provide real-time kinetic data from assay formats that require no tags or labeling of compounds for biomolecular interactions. It is ideal for screening crude supernatants.
(§2) The streptavidin-coated sensor chips (SA chips, Biacore) were used to capture biotinylated anti-human IgG antibody (Sigma, St. Louis, Mo.). The entire sensor chip surface was conditioned with five injections of conditioning solution (1 M NaCl, 50 mM NaOH) and equilibrated with PBS buffer containing 0.005% polysorbate 20. Two to three thousand resonance units (RU) of biotinylated anti-human IgG antibody (Sigma) were immobilized onto the SA chip followed by an injection of regeneration buffer (glycine-HCl, pH 2.2). […] For each antibody at one concentration, the chip was regenerated and equilibrated. […] Thermodynamic and kinetic rate constants of binding were calculated using the Biacore Evaluation software.

[2] = molecular target: T1, recombinant soluble PSMA (rsPSMA); test: Biacore, mAb captured on anti-human IgG, rsPSMA in flow; crude supernatant
Procedure: as §1, §2

[3] = molecular target: T2, prostate specific membrane antigen (PSMA), full-length human (human, UniProt Q04609 1-750); test: cell-based or functional assay
[4] = molecular target: T2, prostate specific membrane antigen …; test: cell-based or functional assay; remark: listed apart in the source

T2 sequence (Q04609 whole entry): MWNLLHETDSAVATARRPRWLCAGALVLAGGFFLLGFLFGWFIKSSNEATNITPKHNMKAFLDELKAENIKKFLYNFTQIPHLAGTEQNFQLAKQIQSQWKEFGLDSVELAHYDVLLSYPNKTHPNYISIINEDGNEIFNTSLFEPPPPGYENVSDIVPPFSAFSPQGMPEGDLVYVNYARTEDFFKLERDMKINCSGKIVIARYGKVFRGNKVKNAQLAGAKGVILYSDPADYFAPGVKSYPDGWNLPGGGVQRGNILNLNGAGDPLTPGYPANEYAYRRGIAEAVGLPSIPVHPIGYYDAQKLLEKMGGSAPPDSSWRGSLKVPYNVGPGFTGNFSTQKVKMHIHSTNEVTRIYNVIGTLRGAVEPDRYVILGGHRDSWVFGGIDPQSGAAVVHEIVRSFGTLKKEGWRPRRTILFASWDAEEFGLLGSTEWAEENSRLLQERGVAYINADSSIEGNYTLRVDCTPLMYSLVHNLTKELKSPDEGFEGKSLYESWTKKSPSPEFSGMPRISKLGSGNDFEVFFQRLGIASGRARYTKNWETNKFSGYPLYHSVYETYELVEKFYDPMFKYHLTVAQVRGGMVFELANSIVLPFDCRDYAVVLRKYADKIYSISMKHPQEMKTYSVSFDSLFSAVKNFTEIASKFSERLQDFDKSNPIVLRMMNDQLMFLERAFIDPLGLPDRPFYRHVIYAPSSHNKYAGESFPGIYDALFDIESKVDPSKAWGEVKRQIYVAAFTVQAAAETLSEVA
T1 sequence (Q04609 44-750): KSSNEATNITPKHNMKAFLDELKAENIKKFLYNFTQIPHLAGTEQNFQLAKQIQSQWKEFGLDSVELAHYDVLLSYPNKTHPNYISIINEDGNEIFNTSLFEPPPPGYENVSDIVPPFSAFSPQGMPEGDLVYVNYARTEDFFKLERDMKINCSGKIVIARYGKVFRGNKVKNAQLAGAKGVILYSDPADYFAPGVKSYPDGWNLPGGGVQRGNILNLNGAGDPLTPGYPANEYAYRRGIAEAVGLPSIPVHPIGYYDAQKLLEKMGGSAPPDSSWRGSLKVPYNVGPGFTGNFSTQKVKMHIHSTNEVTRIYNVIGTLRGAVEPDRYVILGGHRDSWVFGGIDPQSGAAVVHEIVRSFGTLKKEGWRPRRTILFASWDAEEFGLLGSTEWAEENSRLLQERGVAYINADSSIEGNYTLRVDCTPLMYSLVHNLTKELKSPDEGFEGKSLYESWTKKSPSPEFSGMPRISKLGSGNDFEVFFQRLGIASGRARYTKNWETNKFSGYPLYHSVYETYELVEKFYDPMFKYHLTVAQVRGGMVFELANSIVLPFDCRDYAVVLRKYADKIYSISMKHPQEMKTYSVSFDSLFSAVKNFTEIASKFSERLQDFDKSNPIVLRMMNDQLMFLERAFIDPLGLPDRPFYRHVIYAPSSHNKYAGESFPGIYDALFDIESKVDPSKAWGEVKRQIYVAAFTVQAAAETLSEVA

- Kd [1]: 217 pM
- koff [2]: 0.000363 s⁻¹
B1: PSMA 10.3 (antibody, V domains shown)
VH: QEQLVESGGGVVQPGRSLRLSCAASGFTFSTYGMHWVRQAPGKGLEWVAVTWHDGSNKYYADSVKGRFTISRDNSKNTLYLQMNSLRAEDTAVYYCARGGVGATYYYYYGMDVWGQGTTVTVSS
VL: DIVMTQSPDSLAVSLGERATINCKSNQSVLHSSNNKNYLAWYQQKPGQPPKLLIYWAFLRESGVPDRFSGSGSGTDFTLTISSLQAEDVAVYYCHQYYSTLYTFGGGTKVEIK
notes: human antibody from XenoMouse

B2: 225Ac labeled mAb 026 (antibody, human IgG1, V domains shown)
VH: QVQLVESGGGVVQPGRSLRLSCAASGFTFSNYVMHWVRQAPGKGLEWVAIIWYDGSNKYYADSVKGRFTISRDNSKNTLYLQMNSLRAEDTAVYYCAGGYNWNYEYHYYGMDVWGQGTTVTVSS
VL: DIQMTQSPSSLSASVGDRVTITCRASQGITNYLAWFQQKPGKAPKSLIYAASSLQSGVPSKFSGSGSGTDFSLTISSLQPEDFATYYCQQYNSYPITFGQGTRLEIK
modifications: 225Ac chelated by bifunctional DOTA conjugated to the antibody, sites not stated
- IC50, cell survival (Alamar Blue) of C4-2 and LNCaP cells [3]: < 1 nCi/mL
- IC50, cell survival of C4-2 cells by 3H thymidine incorporation [3]: 0.12 nCi/mL
- selectivity of killing, C4-2 vs PC3 [3]: > 50 fold

- PSMA+/PSMA- Ratio of tumor uptake, Mean [4]: 5.55
B3: 026 (antibody, V domains shown)
VH: B2 VH
VL: B2 VL

- PSMA+/PSMA- Ratio of tumor uptake, Mean [4]: 4.27
B4: 006 (antibody, V domains shown)
VH: QVQLVESGGGVVQPGRSLRLSCAASGFAFSRYGMHWVRQAPGKGLEWVAVIWYDGSNKYYADSVKGRFTISRDNSKNTQYLQMNSLRAEDTAVYYCARGGDFLYYYYYGMDVWGQGTTVTVSS
VL: DIQMTQSPSSLSASVGDRVTITCRASQGISNYLAWYQQKTGKVPKFLIYEASTLQSGVPSRFSGGGSGTDFTLTISSLQPEDVATYYCQNYNSAPFTFGPGTKVDIK

Source: US20040161776A1 (PSMA DEVELOPMENT, published 2004)
